Data taken from paper PMC11615109, “PinX1 suppresses cancer progression by inhibiting telomerase activity in cervical squamous cell carcinoma and endocervical adenocarcinoma” (Genes & Diseases, 2024).

Assays:
[1] = biological target: TRF1 TRFH (TRF homology) domain; assay: crystal structure; purified TRF1 TRFH-PinX1TBM complex, 2.7 Å
[2] = biological target: T1, 3×Flag-TERT (purified human telomerase) (human, UniProt O14746 1-1132); assay: pull-down; 3×Flag-TERT (purified telomerase) captured by GST-PinX1 constructs (GST as control), silver staining and Western blot; conditions: both partners purified
T1 construct: TERT, the protein subunit of human telomerase; Purified as telomerase; also called purified telomerase; source: human telomerase, purified
T1 sequence (O14746 whole entry): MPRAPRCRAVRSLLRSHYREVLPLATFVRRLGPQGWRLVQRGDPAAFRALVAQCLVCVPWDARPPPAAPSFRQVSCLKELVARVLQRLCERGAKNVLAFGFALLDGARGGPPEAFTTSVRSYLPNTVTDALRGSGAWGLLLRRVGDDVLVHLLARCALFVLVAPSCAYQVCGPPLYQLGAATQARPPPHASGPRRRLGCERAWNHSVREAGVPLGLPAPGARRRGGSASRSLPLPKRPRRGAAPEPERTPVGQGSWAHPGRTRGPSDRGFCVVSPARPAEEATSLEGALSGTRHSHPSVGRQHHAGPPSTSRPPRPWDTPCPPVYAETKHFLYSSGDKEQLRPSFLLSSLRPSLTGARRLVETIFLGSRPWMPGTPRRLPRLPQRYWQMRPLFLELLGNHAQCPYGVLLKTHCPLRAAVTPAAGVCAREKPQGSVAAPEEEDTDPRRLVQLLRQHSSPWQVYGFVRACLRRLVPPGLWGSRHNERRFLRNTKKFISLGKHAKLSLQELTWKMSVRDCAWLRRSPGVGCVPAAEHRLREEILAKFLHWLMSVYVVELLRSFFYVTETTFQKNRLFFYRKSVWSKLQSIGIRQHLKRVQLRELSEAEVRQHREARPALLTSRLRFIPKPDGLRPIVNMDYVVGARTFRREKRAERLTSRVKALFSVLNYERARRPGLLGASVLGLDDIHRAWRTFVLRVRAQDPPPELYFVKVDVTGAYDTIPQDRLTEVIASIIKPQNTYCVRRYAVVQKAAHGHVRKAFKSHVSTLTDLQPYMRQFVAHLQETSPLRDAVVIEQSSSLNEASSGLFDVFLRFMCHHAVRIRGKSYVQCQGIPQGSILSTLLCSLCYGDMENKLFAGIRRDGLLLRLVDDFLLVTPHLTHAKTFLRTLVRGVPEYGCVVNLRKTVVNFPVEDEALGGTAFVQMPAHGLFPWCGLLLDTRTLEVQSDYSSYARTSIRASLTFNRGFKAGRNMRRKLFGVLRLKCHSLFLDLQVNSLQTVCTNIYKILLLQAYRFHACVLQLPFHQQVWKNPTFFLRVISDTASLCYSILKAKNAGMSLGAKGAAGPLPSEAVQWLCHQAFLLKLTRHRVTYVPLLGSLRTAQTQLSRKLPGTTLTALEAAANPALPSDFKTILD

[3] = biological target: T1, 3×Flag-TERT (purified human telomerase); assay: pull-down; GST-PinX1-C (132-328) captured by 3×Flag-TERT (MBP-3×Flag as control), Western blot; conditions: both partners purified

## TRF1 TRFH (TRF homology) domain (domain or fragment)
[1]
  stoichiometry N: 2

B1: GST-PinX1(203-328) (domain or fragment, UniProt Q96BK5 203-328, looked up)
chain: SETQVERKRGKKRNKEATGKDVESYLQPKAKRHTEGKPERAEAQERVAKKKSAPAEEQLRGPCWDQSSKASAQDAGDHVQPPEGRDFTLKPKKRRGKKKLQKPVEIAEDATLEETLVKKKKKKDSK
notes: PinX1 residues 203-328 (TID)
[2]
  binding result: binds

B2: GST-PinX1(132-328) (domain or fragment, UniProt Q96BK5 132-328, looked up)
chain: GKDLSSRSKTDLDCIFGKRQSKKTPEGDASPSTPEENETTTTSAFTIQEYFAKRMAALKNKPQVPVPGSDISETQVERKRGKKRNKEATGKDVESYLQPKAKRHTEGKPERAEAQERVAKKKSAPAEEQLRGPCWDQSSKASAQDAGDHVQPPEGRDFTLKPKKRRGKKKLQKPVEIAEDATLEETLVKKKKKKDSK
notes: PinX1 residues 132-328; also called GST-PinX1-C (132–328); CTD (C-terminal domain)
[3]
  binding result: binds
